Source: the supplement of paper PMC10567573

B1: SNAP91 (parent)
chain: FSTDAFSSPPQGASPVPESSLTAD

Variants of: B1
Assay: protein stability index of a GFP-peptide fusion (GPS, HEK-293T) (PSI 1-6); higher = more stable
Settings: c terminus: a fixed tail appended
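Further: lentivirally expressed fusions sorted by FACS into six bins by GFP to DsRed ratio, PSI derived from sequencing read proportions per bin multiplied by bin number.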

In order of falling protein stability index:
1. FSTDAFSDPPQGASPVPESSLTAD  4.93
2. FSTDAFSEPPQGASPVPESSLTAD  4.58
3. FSTDAFSSEPQGASPVPESSLTAD  4.35
4. FSTDAFNSPPQGASPVPESSLTAD  4.22
5. FSTDAFSSPPSGASPVPESSLTAD  4.17
6. FSTDAFSSPPQGASPVDESSLTAD  4.14
7. FSTDAFSSPPDGASPVPESSLTAD  4.01
8. FSTDAFSSPPQGASPEPESSLTAD  4
9. FSTDAFSPPPQGASPVPESSLTAD  4
10. FSTDAFSSDPQGASPVPESSLTAD  3.96
11. FSTDAFSSPPEGASPVPESSLTAD  3.9
12. FSTDAFSSPPQGASPVEESSLTAD  3.89
13. FSTDAFSSPPQGASPVHESSLTAD  3.85
14. FSTDAFSSPPQGASPVAESSLTAD  3.79
15. FSTDAFQSPPQGASPVPESSLTAD  3.77
16. FSTDAFSSPPTGASPVPESSLTAD  3.75
17. FSTDAFSSSPQGASPVPESSLTAD  3.74
18. FSTDAFSGPPQGASPVPESSLTAD  3.67
19. FSTDAFSSPPQGASPGPESSLTAD  3.66
20. FSTDAFSSPPQGASPVGESSLTAD  3.66
21. FSTDAFSSPPQGADPVPESSLTAD  3.62
22. FSTDAFSSPDQGASPVPESSLTAD  3.61
23. FSTDAFSSPPQGASPAPESSLTAD  3.6
24. FSTDAFSSPPQGASEVPESSLTAD  3.6
25. FSTDAFSSPPQEASPVPESSLTAD  3.58
26. FSTDAFSSPPQGAAPVPESSLTAD  3.57
27. FSTDAFPSPPQGASPVPESSLTAD  3.56
28. FSTDAFSSPPQGSSPVPESSLTAD  3.54
29. FSTDAFSSPPQDASPVPESSLTAD  3.52
30. FSTDAFSSPPQGNSPVPESSLTAD  3.51
31. FSTDAFSSPPQTASPVPESSLTAD  3.5
32. FSTDAFSSPPQGASHVPESSLTAD  3.5
33. FSTDAFSSPPQGTSPVPESSLTAD  3.47
34. FSTDAFSSPPQGDSPVPESSLTAD  3.45
35. FSTDAFSWPPQGASPVPESSLTAD  3.44
36. FSTDAFSSPPHGASPVPESSLTAD  3.43
37. FSTDAFSSPPQAASPVPESSLTAD  3.39
38. FSTDAFSYPPQGASPVPESSLTAD  3.39
39. FSTDAFSSPLQGASPVPESSLTAD  3.38
40. FSTDAFSSPPQQASPVPESSLTAD  3.35
41. FSTDAFSSPPGGASPVPESSLTAD  3.34
42. FSTDAFTSPPQGASPVPESSLTAD  3.33
43. FSTDAFSSPPQGASPQPESSLTAD  3.33
44. FSTDAFSSPPAGASPVPESSLTAD  3.33
45. FSTDAFSTPPQGASPVPESSLTAD  3.33
46. FSTDAFSSPPQGASPNPESSLTAD  3.31
47. FSTDAFSAPPQGASPVPESSLTAD  3.31
48. FSTDAFSSPPQGAGPVPESSLTAD  3.3
49. FSTDAFSSPPQGASPIPESSLTAD  3.29
50. FSTDAFSLPPQGASPVPESSLTAD  3.29
51. FSTDAFSSPPQGATPVPESSLTAD  3.29
52. FSTDAFSSPPQGASDVPESSLTAD  3.27
53. FSTDAFSSPPPGASPVPESSLTAD  3.27
54. FSTDAFSSPPQGAEPVPESSLTAD  3.27
55. FSTDAFSSPPQGASAVPESSLTAD  3.25
56. FSTDAFSSPPIGASPVPESSLTAD  3.25
57. FSTDAFSSPQQGASPVPESSLTAD  3.24
58. FSTDAFSSPEQGASPVPESSLTAD  3.23
59. FSTDAFSSPPQGASPRPESSLTAD  3.22
60. FSTDAFSSPPQGESPVPESSLTAD  3.22
61. FSTDAFSFPPQGASPVPESSLTAD  3.22
62. FSTDAFSSPPQGALPVPESSLTAD  3.22
63. FSTDAFSSPPQGASPHPESSLTAD  3.17
64. FSTDAFSSPPQGASQVPESSLTAD  3.17
65. FSTDAFSSPPQGASTVPESSLTAD  3.17
66. FSTDAFSSPKQGASPVPESSLTAD  3.16
67. FSTDAFSSPPQGHSPVPESSLTAD  3.16
68. FSTDAFSVPPQGASPVPESSLTAD  3.16
69. FSTDAFWSPPQGASPVPESSLTAD  3.15
70. FSTDAFSSNPQGASPVPESSLTAD  3.13
71. FSTDAFSSPPNGASPVPESSLTAD  3.13
72. FSTDAFSSPPQGASPDPESSLTAD  3.12
73. FSTDAFSSPPQGASNVPESSLTAD  3.12
74. FSTDAFSSPPQRASPVPESSLTAD  3.11
75. FSTDAFSSPPQGQSPVPESSLTAD  3.11
76. FSTDAFSSPAQGASPVPESSLTAD  3.09
77. FSTDAFSSPPQNASPVPESSLTAD  3.08
78. FSTDAFSSPPRGASPVPESSLTAD  3.06
79. FSTDAFSSPPQGAHPVPESSLTAD  3.06
80. FSTDAFSSPPQGASVVPESSLTAD  3.05
81. FSTDAFSSPPQGASPVIESSLTAD  3.04
82. FSTDAFSSPPQGASSVPESSLTAD  3.03
83. FSTDAFSSQPQGASPVPESSLTAD  3.02
84. FSTDAFSMPPQGASPVPESSLTAD  3.02
85. FSTDAFSSPPQGASPVCESSLTAD  3.01
86. FSTDAFSSPPQGANPVPESSLTAD  3
87. FSTDAFSSPPQGACPVPESSLTAD  3
88. FSTDAFSSPPQGGSPVPESSLTAD  2.99
89. FSTDAFSSPPQGASRVPESSLTAD  2.97
90. FSTDAFLSPPQGASPVPESSLTAD  2.96
91. FSTDAFSSPPQGASPYPESSLTAD  2.96
92. FSTDAFSSPPQGASPTPESSLTAD  2.96
93. FSTDAFSSPPQGASPSPESSLTAD  2.96
94. FSTDAFSSPPQGASPKPESSLTAD  2.96
95. FSTDAFSSPPQGAMPVPESSLTAD  2.95
96. FSTDAFSSPPQPASPVPESSLTAD  2.93
97. FSTDAFSSPPQGMSPVPESSLTAD  2.93
98. FSTDAFSSPPQVASPVPESSLTAD  2.92
99. FSTDAFSSKPQGASPVPESSLTAD  2.92
100. FSTDAFSSRPQGASPVPESSLTAD  2.91
101. FSTDAFYSPPQGASPVPESSLTAD  2.9
102. FSTDAFSSPPQGASPVKESSLTAD  2.9
103. FSTDAFSSPPQGAKPVPESSLTAD  2.9
104. FSTDAFSSHPQGASPVPESSLTAD  2.89
105. FSTDAFSSPPQGAIPVPESSLTAD  2.89
106. FSTDAFSSPPVGASPVPESSLTAD  2.88
107. FSTDAFSSPPQGARPVPESSLTAD  2.88
108. FSTDAFSRPPQGASPVPESSLTAD  2.87
109. FSTDAFSSPPQGASPVFESSLTAD  2.86
110. FSTDAFSQPPQGASPVPESSLTAD  2.86
111. FSTDAFSSTPQGASPVPESSLTAD  2.85
112. FSTDAFSSPPQGYSPVPESSLTAD  2.85
113. FSTDAFMSPPQGASPVPESSLTAD  2.84
114. FSTDAFSSPPQGAYPVPESSLTAD  2.84
115. FSTDAFSSPPQGASPLPESSLTAD  2.83
116. FSTDAFSSPPQGASGVPESSLTAD  2.83
117. FSTDAFSSPPQGLSPVPESSLTAD  2.82
118. FSTDAFSSPCQGASPVPESSLTAD  2.8
119. FSTDAFSSPPQSASPVPESSLTAD  2.79
120. FSTDAFSSPPQGASCVPESSLTAD  2.78
121. FSTDAFSSPPQGRSPVPESSLTAD  2.77
122. FSTDAFSSGPQGASPVPESSLTAD  2.76
123. FSTDAFSSPPQLASPVPESSLTAD  2.75
124. FSTDAFSSPPQGVSPVPESSLTAD  2.75
125. FSTDAFSHPPQGASPVPESSLTAD  2.75
126. FSTDAFSNPPQGASPVPESSLTAD  2.75
127. FSTDAFSCPPQGASPVPESSLTAD  2.75
128. FSTDAFSSPPQGAQPVPESSLTAD  2.75
129. FSTDAFSSVPQGASPVPESSLTAD  2.74
130. FSTDAFSSPPLGASPVPESSLTAD  2.74
131. FSTDAFSSPPQKASPVPESSLTAD  2.73
132. FSTDAFSSPVQGASPVPESSLTAD  2.73
133. FSTDAFSSPTQGASPVPESSLTAD  2.73
134. FSTDAFSSPPQGASMVPESSLTAD  2.72
135. FSTDAFSSPPQGWSPVPESSLTAD  2.72
136. FSTDAFSSPPQGPSPVPESSLTAD  2.72
137. FSTDAFSSPSQGASPVPESSLTAD  2.71
138. FSTDAFSSPPQGASPFPESSLTAD  2.7
139. FSTDAFSSPPMGASPVPESSLTAD  2.69
140. FSTDAFSSPGQGASPVPESSLTAD  2.69
141. FSTDAFSSPPQGCSPVPESSLTAD  2.69
142. FSTDAFSSPPQGAWPVPESSLTAD  2.69
143. FSTDAFSSPPQIASPVPESSLTAD  2.68
144. FSTDAFSSPPQGASPMPESSLTAD  2.68
145. FSTDAFSSPPKGASPVPESSLTAD  2.68
146. FSTDAFSSPPFGASPVPESSLTAD  2.68
147. FSTDAFSSPPQGASPCPESSLTAD  2.67
148. FSTDAFSSPPQGASIVPESSLTAD  2.67
149. FSTDAFSSLPQGASPVPESSLTAD  2.65
150. FSTDAFSSPPQGASLVPESSLTAD  2.64
151. FSTDAFSSPNQGASPVPESSLTAD  2.64
152. FSTDAFSSPPQHASPVPESSLTAD  2.63
153. FSTDAFSSPPQGAVPVPESSLTAD  2.63
154. FSTDAFSSPPQCASPVPESSLTAD  2.62
155. FSTDAFSIPPQGASPVPESSLTAD  2.62
156. FSTDAFSSCPQGASPVPESSLTAD  2.61
157. FSTDAFSSPPQFASPVPESSLTAD  2.6
158. FSTDAFSSPPQMASPVPESSLTAD  2.58
159. FSTDAFSSPPQGASFVPESSLTAD  2.57
160. FSTDAFSSPPCGASPVPESSLTAD  2.56
161. FSTDAFSSPRQGASPVPESSLTAD  2.55
162. FSTDAFSSPPQGFSPVPESSLTAD  2.54
163. FSTDAFSSPPQGAFPVPESSLTAD  2.54
164. FSTDAFSSAPQGASPVPESSLTAD  2.52
165. FSTDAFSSPPQGISPVPESSLTAD  2.52
166. FSTDAFSSPPQGKSPVPESSLTAD  2.47
167. FSTDAFSSFPQGASPVPESSLTAD  2.46
168. FSTDAFSSYPQGASPVPESSLTAD  2.45
169. FSTDAFSSPPQYASPVPESSLTAD  2.44
170. FSTDAFSSPPQGASYVPESSLTAD  2.44
171. FSTDAFSSIPQGASPVPESSLTAD  2.43
172. FSTDAFSSPPQGASKVPESSLTAD  2.43
173. FSTDAFSSPIQGASPVPESSLTAD  2.42
174. FSTDAFSKPPQGASPVPESSLTAD  2.38
175. FSTDAFSSPPQGASWVPESSLTAD  2.37
176. FSTDAFSSPPQWASPVPESSLTAD  2.32
177. FSTDAFVSPPQGASPVPESSLTAD  2.32
178. FSTDAFSSPHQGASPVPESSLTAD  2.29
179. FSTDAFSSPMQGASPVPESSLTAD  2.29
180. FSTDAFSSPFQGASPVPESSLTAD  2.28
181. FSTDAFSSWPQGASPVPESSLTAD  2.24
182. FSTDAFSSPPYGASPVPESSLTAD  2.22
183. FSTDAFSSPPQGASPWPESSLTAD  2.21
184. FSTDAFSSPPWGASPVPESSLTAD  2.2
185. FSTDAFSSPYQGASPVPESSLTAD  2.18
186. FSTDAFSSMPQGASPVPESSLTAD  2.16
187. FSTDAFSSPWQGASPVPESSLTAD  1.72
188. FSTDAFRSPPQGASPVPESSLTAD  1.62
